Reference: patent publication US20140127139A1 (GUERBET, published 2014)
No end group written: not given here.

Legend:
[1] = target: T1, rat MUC5AC glycoprotein purified from rat stomach (rat); assay: ELISA; MUC5AC purified from rat stomach immobilized, biotinylated peptide; apparent Kd
T1 construct: Native glycoprotein purified from tissue; also called murine (rat) gastric MUC5AC
Procedure: (§1) The interaction between the peptide and MUC5AC is evaluated by means of an ELISA assay. The mucin MUC5AC (purified from pieces of human tumor on the basis of mucin extraction and purification protocols described in literature) is immobilized on a plate at the concentration of 12.5 μg/ml overnight at 4° C. The nonspecific sites are then saturated in a buffer enriched with milk, for 2 hours at 4° C. After several rinses, the peptide […] coupled to biotin is incubated at increasing concentrations (10⁻³M and 10⁻⁶M) for 2 hours at 37° C. The biotinylated peptides bound to MUC5AC are visualized using goat anti-biotin antibodies incubated for one hour at ambient temperature and then diluted in PBS at 1 μg/ml. After removal of the unbound antibodies, a second incubation for one hour at ambient temperature is carried out in the presence of peroxidase-labeled anti-goat antibodies at 0.2 μg/ml, diluted in PBS supplemented with 0.1% of Tween-20. The peroxidase coloration reaction is carried out in the presence of H₂O₂-enriched ABTS. The measurement of the OD at 405 nm makes it possible to calculate the K*d MUC5AC value.
(§2) The interaction between the peptide and MUC5AC is also evaluated by means of the previously described ELISA assay on the mucin MUC5AC purified beforehand from mouse and rat stomach.

MUC2 glycoprotein = target: T2, MUC2 glycoprotein (human, UniProt Q02817 21-5289, limits assumed, O-glycosylated mucin); assay: histological labelling of human colonic adenoma sections with biotinylated peptide, compared with anti-MUC2 antibody labelling
T2 construct: Present in situ in fixed, paraffin-embedded tissue sections; also called major mucin of the intestine
Procedure: Sections of healthy gastric and colonic mucosae and of human colorectal adenoma (5 μm thick) were fixed for 24 h with 4% paraformaldehyde and embedded in paraffin. For the labeling, the sections were first of all deparaffinized in toluene and rehydrateted in 95% alcohol. After rinsing in water, the slides are brought to boiling for 10 minutes in a citrate buffer (50 mM, pH 4). Once the temperature of the buffer has returned to 25-30° C., the slides are then rinsed with PBS and then successively incubated for 15 minutes in a 0.15% hydrogen peroxide (H₂O₂) solution and a kit for blocking the endogenous biotin for 1 h. The sections are then blocked using a milk-enriched buffer for 1 h at ambient temperature, and are then incubated at 4° C. for 18 h with the peptides at various concentrations (20 μM, 10 μM, 1 μM, 0.2 μM, 0.04 μM) or the antibodies (MUC5AC: PM8 at a 1/100 dilution and MUC2: Lum2-3 at a 1/100 dilution) diluted in PBS. The biotinylated peptides bound to the target are visualized using goat anti-biotin antibodies incubated for one hour at ambient temperature and then diluted in PBS at 1 μg/ml. A second incubation for one hour at ambient temperature is carried out in the presence of peroxidase-labeled anti-goat antibodies at 0.2 μg/ml diluted in PBS supplemented with 0.1% of Tween-20. […]

[2] = target: T3, human MUC5AC mucin purified from pieces of human tumor (human, UniProt P98088 28-5654, limits assumed, O-glycosylated mucin); assay: ELISA; purified human MUC5AC immobilized, biotinylated peptide at increasing concentrations, OD 405 nm; apparent Kd
T3 construct: Native glycoprotein purified from tissue and immobilized on an ELISA plate at 12.5 ug/ml; Also used here as the target for labelling of human tissue sections (MUC5AC in situ); also called human colonic MUC5AC; purified MUC5AC
Procedure: as §1

[3] = target: T4, mouse MUC5AC glycoprotein purified from mouse stomach (mouse); assay: ELISA; MUC5AC purified from mouse stomach immobilized, biotinylated peptide; apparent Kd
T4 construct: Native glycoprotein purified from tissue; Also used here as the target for the in vivo mouse stomach signal (MUC5AC in situ); also called murine (mouse) gastric MUC5AC
Procedure: as §1, §2

[4] = target: T5, native MUC5AC secreted by HT29-5M21 human colonic adenocarcinoma cells (human, UniProt P98088 28-5654, O-glycosylated mucin); assay: cell ELISA on HT29 5M21 cells secreting MUC5AC, biotinylated peptide, OD 405 nm; apparent Kd
T5 construct: whole, on cells; A secreted mucin on the cell layer, not a membrane protein; also called MUC5AC cells; MUC5AC directly after secretion on secretory human adenocarcinoma cells
Procedure: The affinity of the peptide for MUC5AC is calculated from a functional cell assay which consists in measuring the binding of the peptide on a cell model secreting MUC5AC. After 21 days of culture for HT29-5M21 cells and 7 days for HCT116 cells, the cells are rinsed with PBS at 4° C., and then fixed with 1% glutaraldehyde diluted in PBS. The cells are then rinsed again 3 times with PBS at 4° C. and incubated for 2H at ambient temperature with a milk-enriched buffer and for 2H at 37° C. in a concentration range of between 10⁻³M and 10⁻⁶M of biotinylated peptides. The biotinylated peptides bound to the target are visualized using goat anti-biotin antibodies incubated for one hour at ambient temperature (diluted in PBS to 1 μg/ml). A second incubation for one hour at ambient temperature is carried out in the presence of peroxidase-labeled anti-goat antibodies at 0.2 μg/ml, diluted in PBS supplemented with 0.1% of Tween-20. The peroxidase coloration reaction is carried out in the presence of ABTS and the OD measurement is carried out at 405 nm. The cell assay has the advantage of showing affinity data, although its sensitivity can still be improved. The secretion of MUC5AC was indeed verified in the study. The results on human tissues (affinity curve for human MUC5AC also obtained) give very positive results. […]

B1: peptide CPSIYPLLC (SEQ ID No. 2) coupled to biotin (peptide)
peptide: CPSIYPLLC
modifications: also: biotin coupled, site not given here, cyclic, closure type not given here
notes: The chemistry of the biotin coupling is not described; also called Cyclic C60
For B1, the Kd [1] was 659 µM, the binding result (MUC2 glycoprotein) was “no binding” and the Kd [2] was 85 µM. It also gave a Kd [3] of 549 µM and a Kd [4] of 48 µM.
